According to the supplement of paper PMC9732359:
± gives the uncertainty stated by the source.

Assay: protein stability index of a GFP-peptide fusion (yeast GPS) (PSI 1-4); higher = more stable; sorted into four equal gates, so the index is relative within each strain
Outline: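 The protein stability index of a peptide was calculated by multiplying its read frequency in each gate by that gate's number and adding the products. The peptides were tiled 17-residue stretches of yeast proteins, fused downstream of GFP on a Cherry-expressing plasmid and carried in yeast as a pooled library. Mid-log cultures in leucine-free medium were sorted into four equal gates by GFP/Cherry ratio, and each gate's plasmids were PCR-amplified and Illumina-sequenced.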

Sequence	protein stability index (doa10∆)	protein stability index (pdr5∆)	protein stability index (san1∆)	protein stability index (ubr1∆)
IRINDEPILGQITLTFI [YML103C/NUP188]	2.21 ± 0.067	2.64 ± 0.05	1.57 ± 0.073	2.25 ± 0.048
DDNNNNNNNNNNNNSTR [GRR1]	2.95 ± 0.045	3.02 ± 0.042	2.95 ± 0.041	3.03 ± 0.054
RGFFDILSLATEGCIGL [MCD1]	2.87 ± 0.1	3.03 ± 0.057	2.52 ± 0.092	2.7 ± 0.063
FAGEAGDTVQFAEYIQA [PRE1]	1.72 ± 0.089	1.74 ± 0.094	1.75 ± 0.13	2.09 ± 0.054
NAISNTQDDFTTSVDVM [SRP54]	2.79 ± 0.076	2.76 ± 0.061	3.1 ± 0.064	3.2 ± 0.045
HVTQEDFELAVGKVMNK [RPT6]	2.83 ± 0.17	2.82 ± 0.13	2.62 ± 0.13	2.69 ± 0.15
IEVTIGIDQYSFNVKEN [AAR2]	2.67 ± 0.053	2.75 ± 0.05	2.58 ± 0.047	2.76 ± 0.056
ELEGSFNKSAELSRIEN [YCS4]	2.58 ± 0.13	3.22 ± 0.23	3.12 ± 0.087	3.11 ± 0.12
KLLKIPKFISEALAFTS [YDL116W/NUP84]	2.32 ± 0.093	2.46 ± 0.086	2.24 ± 0.1	2.75 ± 0.05
TMRRQKLTILQEGIEAI [RET1]	2.39 ± 0.076	2.67 ± 0.051	2.8 ± 0.078	2.96 ± 0.062
NQGVNELKYQRSLRATA [RPL15A]	1.33 ± 0.073	1.42 ± 0.086	1.61 ± 0.18	1.11 ± 0.05
KQVLDVDPVYKDVAKPT [FAS2]	2.98 ± 0.065	2.99 ± 0.058	3.08 ± 0.037	2.86 ± 0.041
LWVFQAFTCFCIKKIME [SRB8]	1.69 ± 0.044	1.52 ± 0.04	1.27 ± 0.073	1.48 ± 0.037
EFGADWYKVAKNVGNKS [SWI3]	3.35 ± 0.1	3.34 ± 0.083	3.35 ± 0.048	3.3 ± 0.051
VPSPTGEYVKEPEWVLE [RPO21]	3 ± 0.11	3.07 ± 0.12	2.85 ± 0.28	3.15 ± 0.062
QFNATINPESREIVMPA [ITC1]	1.87 ± 0.15	1.86 ± 0.17	1.7 ± 0.13	1.14 ± 0.19
LGVVFGRGGSGWKPYYK [YML031W/NDC1]			3.4 ± 0.12	
DTKIDQVNGNIRKVSND [SMC3]	3.47 ± 0.16	3.07 ± 0.24	3 ± 0.12	3.27 ± 0.13
GKIVSQRGKWNLKYLDN [RGR1]	2.28 ± 0.074	2.64 ± 0.068	2.37 ± 0.091	2.17 ± 0.06
RGGVKRISGLIYEEVRA [HHF1]	3.35 ± 0.13	3.13 ± 0.2	3.15 ± 0.11	
SYVNYRHMALLVDVMTT [RPO21]	1.23 ± 0.049	1.25 ± 0.049	1.2 ± 0.062	1.18 ± 0.034
RAQEEVKRIQSVPLVIG [RPT3]	3.52 ± 0.13	3.16 ± 0.15	3.04 ± 0.11	3.21 ± 0.066
NKQSVSNLSPDLKFKRH [DSN1]	2.95 ± 0.11	2.61 ± 0.22	3.32 ± 0.089	2.34 ± 0.2
GGSATARHKKKVENLDY [YML031W/NDC1]	3.4 ± 0.14	3.38 ± 0.14	3.06 ± 0.12	3.62 ± 0.29
RAGQRGYHSRTSINHKI [RPL3]	2.85 ± 0.13	3.23 ± 0.14	3 ± 0.096	3.5 ± 0.12
MIISGSRDKTIKVWTIK [ASC1]	2.48 ± 0.084	2.71 ± 0.092	2.49 ± 0.11	2.95 ± 0.087
TKANDKNESATINEMMK [FAS2]	3.1 ± 0.084	3.17 ± 0.094	3.03 ± 0.062	3.11 ± 0.057
